From the DeepSol protein solubility set

Assay: soluble on expression in E. coli; label from the status in PepcDB or PDB records

Sequence | soluble on expression in E. coli
MANSAGSMAPKVFYISDGTAITAEVFGHAVLSQFPLEFESLTIPFVETLAKAENVKRQINDCFITTGERPLVFHSIVKPEIRDIIYSSEGLDYDFLNTFVAPLEQHLGVSASPVLHRTHGKANQGYEARIDAINFAMDNDDGQTMKHMDQADLILLGVSRCGKTPSSLYLSMQFGIKAANYPFTEDDMDNLKLPEALKRNKKKLFGLTIDPVRLHEIRQSRMENSRYSSLKQCRLEVKEVEMMFKRERIPYIDTTNHSVEEIATKILDVTGLERHMFLEHHHHHH | not soluble
MANSAGSMTIFVISDSAGETASKLAAASMAQYPTVDFTLIRRTFVKDEDKLVQALEDAKKAEAMVLHTIINDHLVAIANQFFNEHQLFHFDILTPPVAEIERLTGVAPMREPGALHHLNENYFKRIEAMEFAVKYDDGKDPRGFLEADVLLLGVSRTSKTPLSLFLANKNLKVANLPLIPEAHLPKQLFEMDPKKIVGLTNDPNVLNGIRKERMRAYGLPENTSYSDIEKIRRELAFANDLYQKLGCIVIDVASLSIEETASMILNALNLEDHSYYSTETSEDLEHHHHHH | not soluble
MANSITADEIREQFSQAMSAMYQQEVPQYGTLLELVADVNLAVLENNPQLHEKMVNADELARLNVERHGAIRVGTAQELATLRRMFAIMGMYPVSYYDLSQAGVPVHSTAFRPIDDASLARNPFRVFTSLLRLELIENEILRQKAAEILRQRDIFTPRCRQLLEEYEQQGGFNETQAQEFVQEALETFRWHQSATVDEETYRALHNEHRLIADVVCFPGCHINHLTPRTLDIDRVQSMMPECGIEPKILIEGPPRREVPILLRQTSFKALEETVLFAGQKQGTHTARFGEIEQRGVALTPKGRQLYDDLLRNAGTGQDNLTHQMHLQETFRTFPDSEFLMRQQGLAWFRYRLTPSGEAHRQAIHPGDDPQPLIERGWVVAQPITYEDFLPVSAAGIFQSNLGNETQTRSHGNASREAFEQALGCPVLDEFQLYQEAEERSKRRCGLLLEHHHHHH | soluble
MANVGGRRKPAADARLEVIQKLFPEAVVDGGIDWELLKRVFGGHERQEAYEFTWPGKAEARRLAELPASGVLRPDQAASKQWETTNNWYIEGDNLEALKLLRTSHAGTIQMIYIDPPYNTGKVLTYKDNWRKGKAVVPSGIQEEARGHVGWLNMMYPRLWVARELLAETGAIFISIDDTEQANLRKMCDEIFGERNFVATFIWQRAFSPVNMNKFASRNHDFILCYAKNIDRLAWYGLPRHPEADVRYANPDNDPRGPWMSGDLSVGPPIPEKIYEIVTPSGRVVSPPNGYCWRVTKERFAELAADNRIWFGKDGNGVPRLKRFLSEVKSTVTPLTIWTHDEVSHSQEAKKELKELFDGLAVMDYPKPVKLIQRMVALTTRDDDPILDFFSGSATTAHAVMQQNAEDGGRRSFIMVQLPERLAETSEAYRVGFRTICDIGRERIRRAGEKIVYETGKTELDIGFKVFRIERTNQPAR | not soluble
MANYWLYKSEPFKWSWEMQKAKGETGEEWTGVRNYQARNNMRAMKIGDKGFFYHSNEGLDVVGIVEVCALSHPDSTAEGDLKWDCVDIRAVCDMPQPVSLKDVKANPKLEKMSLVTSMRLSVQPVTEEEYLEVCRMGGLANPPKSPDLEHHHHHH | soluble
MAPATQRNRETIAAVLQEYLPSQGSILEIASGTGEHACFFAPLFSPRWWITSDPDPLCRESIMAWRDHQALANFQSPLDLDVNDQVWPVEREILREPVTSIVAINLIHISPWESCLGLLTGAERILPEGGILYLYGPYRQKGVPTAPSNEAFDQSLQSRNPAWGLRQLEDVIGEAGKRNLHNQAIIPMPANNLSVIFQKGLEHHHHHH | soluble
MAPKKVLLALTSYNDVFYSDGAKTGVFVVEALHPFNTFRKEGFEVDFVSETGKFGWDEHSLAKDFLNGQDETDFKNKDSDFNKTLAKIKTPKEVNADDYQIFFASAGHGTLFDYPKAKDLQDIASEIYANGGVVAAVCHGPAIFDGLTDKKTGRPLIEGKSITGFTDVGETILGVDSILKAKNLATVEDVAKKYGAKYLAPVGPWDDYSITDGRLVTGVNPASAHSTAVRSIDALKN | soluble
